From the supplement of paper PMC10567573

B1: ANKRD9 (parent)
chain: LLEDMRASEAFHWDERGRAAAYSP
B2: TRAF3IP2 (parent)
chain: APWNYHYHCPGSPDHQVPYGHDYP

Variants of: B1
Assay: protein stability index of a GFP-peptide fusion (GPS, HEK-293T) (PSI 1-6); higher = more stable
Conditions: c terminus: a fixed tail appended
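Note: lentivirally expressed fusions sorted by FACS into six bins by GFP to DsRed ratio, PSI derived from sequencing read proportions per bin multiplied by bin number.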

Protein stability index of substitutions, site by site:
R6: A 3.56; C 3.6; D 4.03; E 3.96; F 2.79; H 2.95; I 2.32; K 2.85; L 1.1; M 2.17; N 2.97; P 3.27; S 2.9; T 2.5; V 2.43; W 1.87; Y 2.43
A7: C 1.8; D 2.51; E 1.27; F 2.64; G 3.01; H 3.62; I 1.96; K 1.52; L 2.19; M 2.34; P 4.21; Q 1.8; R 1.76; S 1.78; T 2.15; V 2.35; W 2.3; Y 1.8
S8: A 3.3; C 2.5; D 3.89; F 3.31; G 2.19; H 3.13; I 1.95; K 3.96; L 2.73; M 3.04; N 4.13; P 3.3; Q 3.91; R 2.88; T 1.82; V 2.82; W 3.13; Y 2.7
E9: A 3.12; D 2.99; F 2.32; G 2.06; H 3.31; I 1.79; K 3.29; L 1.89; M 2.46; P 2.8; Q 4.46; R 2.77; S 3; T 2.96; V 2.19; W 1.32; Y 2.48
A10: C 1.39; D 1.23; E 1.81; F 2.1; G 2.46; H 2.7; K 1.97; L 2.82; M 1.94; N 1.54; P 3.58; R 1.86; S 1.85; T 2.44; V 1.5; W 1.94
F11: A 2.71; D 3.58; E 1.74; G 3.23; H 2.66; I 1.78; K 3.72; L 1.98; M 2.28; N 2.84; P 2.5; Q 2.32; R 2.87; S 2.91; T 2.5; Y 2.03
H12: A 3.33; C 3.35; D 2.1; E 1.83; F 2.29; G 2.49; I 2.61; K 2.5; L 2.68; M 1.68; P 1.95; R 2.2; T 2.21; V 1.34
W13: A 2.16; C 2.53; D 2.24; E 2.06; F 2.05; G 2.61; H 2.66; I 1.87; K 2.93; L 2.41; M 1.84; N 2.2; P 2.74; R 2.94; V 2.05; Y 1.39
D14: F 1.36; H 2.13; I 1.77; K 1.41; L 2.09; M 2.33; N 2.11; P 1.6; Q 1.58; R 2.29; T 2.57; V 1.35; W 2.41; Y 1.98
E15: A 1.31; C 2.68; D 1.56; F 2.95; G 1.7; H 2.68; I 2.83; K 1.8; L 1.5; M 1.32; P 1.88; Q 1.94; R 1.58; S 1.64; T 1.91; V 1.52; Y 1.81
R16: A 2.24; C 1.56; E 1.93; F 1.86; G 1.88; H 2.44; I 3.12; K 1.32; L 2.41; M 1.32; N 1.93; Q 1.9; S 1.44; T 1.74; V 1.79; W 1.58
G17: C 2.39; E 2.31; F 2.59; H 1.44; K 1.78; N 2.52; R 2.06; T 1.42; V 3.02; W 1.1
R18: A 2.65; C 1.69; D 1.91; E 1.96; F 2.22; G 2.12; H 2.66; I 1.65; K 1.8; L 2.24; M 2.34; N 2.14; P 1.56; Q 1; S 1.88; T 1.7; V 2.36; Y 1.71
A19: C 2.26; D 1.36; E 1.55; F 1.54; H 1.69; I 1.03; K 2.27; L 2.39; N 1.84; P 2.31; Q 1.22; R 1.84; S 2.23; T 1.88; V 1.99; W 1.53; Y 1.28
A20: C 1.46; D 2.64; E 1.92; F 1.81; H 2.13; I 1.97; K 1.62; L 2.27; M 2.55; P 1.92; Q 1.48; R 1.1; S 1.62; T 2.36; V 1.34; Y 1.85
A21: C 2.15; D 2.06; E 2.53; F 2.55; G 1.33; H 1.45; I 1.71; K 1.95; L 1.87; M 1.96; N 2.15; P 1.86; Q 2.29; R 2.23; S 1.62; T 1.43; V 3.25; W 1.42; Y 2.08
Y22: A 3.01; C 1.8; D 2.2; E 2.62; G 1.63; H 1.76; I 2.17; K 2.18; L 1.81; M 1.64; Q 2.39; R 1.81; S 2; T 4.08
S23: A 2.09; D 2.09; E 1.85; F 1.35; G 1.68; H 1.98; I 2.61; K 2.05; L 2.1; M 2.68; N 1.16; P 1.4; Q 3.31; R 1.91; T 2.08; V 2.08; Y 1.74
P24: A 2.1; D 1.75; E 2.48; F 1.23; H 2.19; K 1.53; L 1.38; N 2.41; Q 1.58; R 1.75; S 3.62; T 2.34; V 1.68; Y 1.6

Variants of: B2
Assay: as above
Conditions: c terminus: a fixed tail appended

Protein stability index, by site and new letter:
A1: C 2.72; D 3.33; E 2.91; F 2.12; G 3.39; H 3.12; I 1.71; K 2.81; L 2.08; M 2.5; N 2.32; P 2.71; Q 1.53; R 2.1; S 2.18; T 1.87; V 1.71; Y 2.37
P2: A 2.66; C 2.15; D 3.38; E 3.07; F 1.95; G 1.59; H 2.26; I 1.58; K 2.04; L 1.76; M 2.07; N 3.37
